From patent US20150203577A1 (Chugai, published 2015)
Positions count from the first letter of the chain named.

B1: H237-MB364/MRAL-k0 (antibody)
heavy: QVQLQESGPGLVKPSETLSLTCAVSGHSISHDHAWSWVRQPPGEGLEWIGFISYSGITNYNPSLQGRVTISRDNSKNTLYLQMNSLRAEDTAVYYCARSLARTTAMDYWGEGTLVTVSSAKTTPPSVYPLAPGSAAQTNSMVTLGCLVKGYFPEPVTVTWNSGSLSSGVHTFPAVLQSDLYTLSSSVTVPSSTWPSETVTCNVAHPASSTKVDKKIVPRDCGCKPCICEAKEVEDVFIFPPKPKDVLTITLTPKVTCVVVDISKDDPEVQFSWFVDDVEVHTAQTQPREEQFNSTFRSVSELPIMHQDWLNGKEFKCRVNSAAFPAPIEKTISKTKGRPKAPQVYTIPPPKEQMAKDKVSLTCMITDFFPEDITVEWQWNGQPAENYKNTQPIMDTDGSYFVYSKLNVQKSNWEAGNTFTCSVLHEGLHNHHTEKSLSHSPGK
light: not shown
notes: copies: 2 + 2
B2: H237-MB585/MRAL-k0 (antibody, mouse IgG1, kappa)
heavy: B1 heavy with E229T, A230V, K231P, E234D, D235F
light: not shown
notes: copies: 2 + 2
B3: H237-MB567/MRAL-k0 (antibody, mouse IgG1, kappa)
heavy: B1 heavy with E229T, A230V, K231P, D235S, S263M
light: not shown
notes: copies: 2 + 2
B4: H237-MB591/MRAL-k0 (antibody, mouse IgG1, kappa)
heavy: B1 heavy with E229T, A230V, K231P, E234D, D235S, S294H
light: not shown
notes: copies: 2 + 2
B5: H237-MB595/MRAL-k0 (antibody, mouse IgG1, kappa)
heavy: B1 heavy with A230V, K231P, D235F
light: not shown
notes: copies: 2 + 2
B6: H237-MB587/MRAL-k0 (antibody, mouse IgG1, kappa)
heavy: B1 heavy with E229T, A230V, K231P, E234D, D235S, F237D
light: not shown
notes: copies: 2 + 2
B7: H237-MB602/MRAL-k0 (antibody, mouse IgG1, kappa)
heavy: B1 heavy with A230V, K231P, V233E, E234D, D235S
light: not shown
notes: copies: 2 + 2
B8: H237-MB563/MRAL-k0 (antibody, mouse IgG1, kappa)
heavy: B1 heavy with E229T, A230V, K231P, D235W
light: not shown
notes: copies: 2 + 2
B9: H237-MB598/MRAL-k0 (antibody, mouse IgG1, kappa)
heavy: B1 heavy with A230V, K231P, D235S, S263M
light: not shown
notes: copies: 2 + 2
B10: H237-MB572/MRAL-k0 (antibody, mouse IgG1, kappa)
heavy: B1 heavy with E229T, A230V, K231P, V233E, E234S, D235W
light: not shown
notes: copies: 2 + 2
B11: H237-MB566/MRAL-k0 (antibody, mouse IgG1, kappa)
heavy: B1 heavy with E229T, A230V, K231P, D235S, F237T
light: not shown
notes: copies: 2 + 2
B12: H237-MB584/MRAL-k0 (antibody, mouse IgG1, kappa)
heavy: B1 heavy with E229T, A230V, K231P, V233E, E234D, D235S
light: not shown
notes: copies: 2 + 2
B13: H237-MB581/MRAL-k0 (antibody, mouse IgG1, kappa)
heavy: B1 heavy with E229T, A230V, K231P, E234S, D235W, F237T
light: not shown
notes: copies: 2 + 2
B14: H237-MB568/MRAL-k0 (antibody, mouse IgG1, kappa)
heavy: B1 heavy with E229T, A230V, K231P, D235S, S294H
light: not shown
notes: copies: 2 + 2
B15: H237-MB599/MRAL-k0 (antibody, mouse IgG1, kappa)
heavy: B1 heavy with A230V, K231P, V233E, E234S, D235F
light: not shown
notes: copies: 2 + 2
B16: H237-MB565/MRAL-k0 (antibody, mouse IgG1, kappa)
heavy: B1 heavy with E229T, A230V, K231P, D235S, F237E
light: not shown
notes: copies: 2 + 2
B17: H237-MB575/MRAL-k0 (antibody, mouse IgG1, kappa)
heavy: B1 heavy with E229T, A230V, K231P, V233E, E234S, D235S, F237T
light: not shown
notes: copies: 2 + 2
B18: H237-MB562/MRAL-k0 (antibody, mouse IgG1, kappa)
heavy: B1 heavy with E229T, A230V, K231P, D235F
light: not shown
notes: copies: 2 + 2
B19: H237-MB597/MRAL-k0 (antibody, mouse IgG1, kappa)
heavy: B1 heavy with A230V, K231P, D235S, F237D
light: not shown
notes: copies: 2 + 2
B20: H237-MB596/MRAL-k0 (antibody, mouse IgG1, kappa)
heavy: B1 heavy with A230V, K231P, D235W
light: not shown
notes: copies: 2 + 2
B21: H237-MB589/MRAL-k0 (antibody, mouse IgG1, kappa)
heavy: B1 heavy with E229T, A230V, K231P, E234D, D235S, F237T
light: not shown
notes: copies: 2 + 2
B22: H237-MB580/MRAL-k0 (antibody, mouse IgG1, kappa)
heavy: B1 heavy with E229T, A230V, K231P, E234S, D235W, F237E
light: not shown
notes: copies: 2 + 2
B23: H237-MB579/MRAL-k0 (antibody, mouse IgG1, kappa)
heavy: B1 heavy with E229T, A230V, K231P, E234S, D235W, F237D
light: not shown
notes: copies: 2 + 2
B24: H237-MB574/MRAL-k0 (antibody, mouse IgG1, kappa)
heavy: B1 heavy with E229T, A230V, K231P, V233E, E234S, D235S, F237E
light: not shown
notes: copies: 2 + 2
B25: H237-MB588/MRAL-k0 (antibody, mouse IgG1, kappa)
heavy: B1 heavy with E229T, A230V, K231P, E234D, D235S, F237E
light: not shown
notes: copies: 2 + 2
B26: H237-MB586/MRAL-k0 (antibody, mouse IgG1, kappa)
heavy: B1 heavy with E229T, A230V, K231P, E234D, D235W
light: not shown
notes: copies: 2 + 2
B27: H237-MB573/MRAL-k0 (antibody, mouse IgG1, kappa)
heavy: B1 heavy with E229T, A230V, K231P, V233E, E234S, D235S, F237D
light: not shown
notes: copies: 2 + 2
B28: H237-MB601/MRAL-k0 (antibody, mouse IgG1, kappa)
heavy: B1 heavy with A230V, K231P, V233E, E234S, D235S, F237D
light: not shown
notes: copies: 2 + 2
B29: H237-MB564/MRAL-k0 (antibody, mouse IgG1, kappa)
heavy: B1 heavy with E229T, A230V, K231P, D235S, F237D
light: not shown
notes: copies: 2 + 2
B30: H237-MB571/MRAL-k0 (antibody, mouse IgG1, kappa)
heavy: B1 heavy with E229T, A230V, K231P, V233E, E234S, D235F
light: not shown
notes: copies: 2 + 2
B31: H237-MB578/MRAL-k0 (antibody, mouse IgG1, kappa)
heavy: B1 heavy with E229T, A230V, K231P, E234S, D235F, F237T
light: not shown
notes: copies: 2 + 2
B32: H237-MB577/MRAL-k0 (antibody, mouse IgG1, kappa)
heavy: B1 heavy with E229T, A230V, K231P, E234S, D235F, F237E
light: not shown
notes: copies: 2 + 2
B33: H237-MB576/MRAL-k0 (antibody, mouse IgG1, kappa)
heavy: B1 heavy with E229T, A230V, K231P, E234S, D235F, F237D
light: not shown
notes: copies: 2 + 2
B34: H237-MB600/MRAL-k0 (antibody, mouse IgG1, kappa)
heavy: B1 heavy with A230V, K231P, V233E, E234S, D235W
light: not shown
notes: copies: 2 + 2
B35: H237-MB561/MRAL-k0 (antibody, mouse IgG1, kappa)
heavy: B1 heavy with E229T, A230V, K231P, V233E, D235S
light: not shown
notes: copies: 2 + 2

How the values were obtained:
[1] = biological target: T1, mouse FcγRIII extracellular domain, C-terminal His tag (mouse, UniProt P08508 31-215); test: SPR (Biacore T200); KD of H237-mIgG1/MRAL-k0 / KD of variant
T1 construct: Whole entry named; also called mFcγRIII; mFcgRIII
T1 chain: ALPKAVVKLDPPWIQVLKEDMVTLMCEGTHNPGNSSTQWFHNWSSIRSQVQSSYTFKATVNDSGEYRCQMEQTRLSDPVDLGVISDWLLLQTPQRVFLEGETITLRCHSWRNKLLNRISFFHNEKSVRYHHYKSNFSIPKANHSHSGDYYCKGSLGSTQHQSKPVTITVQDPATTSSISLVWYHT

[2] = biological target: T2, mouse FcγRII extracellular domain, C-terminal His tag (mouse, UniProt P08101 30-210); test: as above
T2 construct: Whole entry named; also called mFcγRII; mFcgRII
T2 sequence: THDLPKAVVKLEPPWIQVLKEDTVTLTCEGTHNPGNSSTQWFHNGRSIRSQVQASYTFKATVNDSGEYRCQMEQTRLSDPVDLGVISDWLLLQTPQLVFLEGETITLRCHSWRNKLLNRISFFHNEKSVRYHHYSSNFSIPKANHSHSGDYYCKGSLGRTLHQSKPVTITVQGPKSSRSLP

Row | Binder | relative mFcγRIII-binding activity (mIgG1 = 1) [1] | relative mFcγRII-binding activity (mIgG1 = 1) [2]
1 | B1 | 1.35 fold | 6.55 fold
2 | B2 | 0.03 fold | 0.06 fold
3 | B3 | 0.07 fold | 0.21 fold
4 | B4 | 0.02 fold | 0.08 fold
5 | B5 | 0.05 fold | 0.09 fold
6 | B6 | 0.6 fold | 1.33 fold
7 | B7 | 0.05 fold | 0.26 fold
8 | B8 | 0.08 fold | 0.2 fold
9 | B9 | 0.08 fold | 0.41 fold
10 | B10 | 0.07 fold | 0.26 fold
11 | B11 | 0.1 fold | 0.18 fold
12 | B12 | 0.02 fold | 0.08 fold
13 | B13 | 0.42 fold | 0.69 fold
14 | B14 | 0.18 fold | 0.71 fold
15 | B15 | 0.11 fold | 0.7 fold
16 | B16 | 0.23 fold | 0.66 fold
17 | B17 | 0.05 fold | 0.08 fold
18 | B18 | 0.02 fold | 0.05 fold

Row | Binder | relative mFcγRIII-binding activity (mIgG1 = 1) [1] | relative mFcγRII-binding activity (mIgG1 = 1) [2]
19 | B19 | 0.54 fold | 1.28 fold
20 | B20 | 0.17 fold | 0.55 fold
21 | B21 | 0.19 fold | 0.23 fold
22 | B22 | 0.61 fold | 1.38 fold
23 | B23 | 0.34 fold | 0.89 fold
24 | B24 | 0.1 fold | 0.27 fold
25 | B25 | 1.01 fold | 2.01 fold
26 | B26 | 0.08 fold | 0.13 fold
27 | B27 | 0.06 fold | 0.43 fold
28 | B28 | 0.1 fold | 0.55 fold
29 | B29 | 0.11 fold | 0.32 fold
30 | B30 | 0.05 fold | 0.22 fold
31 | B31 | 0.25 fold | 0.39 fold
32 | B32 | 1.19 fold | 2.51 fold
33 | B33 | 0.6 fold | 1.54 fold
34 | B34 | 0.25 fold | 1.24 fold
35 | B35 | 0.07 fold | 0.48 fold
